Drawing on the supplement of paper PMC10567573, this text covers protein stability index for 73 sequences.

± gives the standard deviation.

The series can be described thus: protein stability index of a GFP-peptide fusion (GPS, HEK-293T) (PSI 1-6); higher = more stable. To be noted: c terminus: a fixed tail appended.
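Note: 24-mer peptide tiles fused after GFP, lentivirally expressed, FACS-sorted into six equal bins by GFP/DsRed ratio, decoded by Illumina sequencing, PSI is the read-weighted mean bin number.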

For the sequence WNFEITNQSFNIVDIKPANMEELT [PPP2R2B], the protein stability index (treatment: DMSO) was determined as 3.4 ± 0.55 and the protein stability index (treatment: MLN4924 1 uM, 8 h) amounted to 3.13 ± 0.65.
Regarding DLLRNTHFRGVSLNLTRKLAQQLC [DYRK1B], the protein stability index was determined as 2.35 ± 0.48 (treatment: DMSO) and 2.22 ± 0.3 (treatment: MLN4924 1 uM, 8 h).
The like results for DMMVMGRKPDPMCVFTYVQSLYNH [SMTNL2] were, in that order, 2.28 ± 0.24 and 2.2 ± 0.34.
As for HSKQYRCLSFQPECSMKLTPLVLE [VDR], the protein stability index by setting is: (treatment: DMSO) 2.5 ± 0.29; (treatment: MLN4924 1 uM, 8 h) 2.42 ± 0.14.
Regarding NLLLQPTTNPHTSASHRPCVNGDV [SMG5], the protein stability index by setting is: (treatment: DMSO) 3.48 ± 0.23; (treatment: MLN4924 1 uM, 8 h) 3.54 ± 0.43.
The like results for QKVTCFYQPAPYFAAEARYPIYVI [TENT5D] were, in that order, 2.89 ± 0.4 and 2.54 ± 0.49.
Take WEKKPFSEDVNWGYEKRNLARVPK [CHGB]: the protein stability index (treatment: DMSO) was determined as 3.38 ± 0.3 and the protein stability index (treatment: MLN4924 1 uM, 8 h) was 3.87 ± 0.17.
As for FSIVSVAAHLALLLLCGTISLRVY [RTN2], the protein stability index runs as follows: (treatment: DMSO) 3.35 ± 0.76; (treatment: MLN4924 1 uM, 8 h) 3.16 ± 0.8.
The like results for KVCLLGDTGVGKSSIVWRFVEDSF [RAB22A] were, in that order, 2.28 ± 0.22 and 2.48 ± 0.68.
Taken in the same sequence, the figures for TRFILSKVPSEAPSPMPTHRSYLG [SLC6A17] were 2.73 ± 0.31 and 2.64 ± 0.26.
Taken in the same sequence, the figures for IPQAGGWGPWGPWGDCSRTCGGGV [ADAMTS4] were 2.68 ± 0.15 and 2.47 ± 0.22.
GHGMTPLKVAAESCKADVVELLLS [FEM1B]: the protein stability index is, setting by setting: (treatment: DMSO) 2.29 ± 0.21; (treatment: MLN4924 1 uM, 8 h) 2.47 ± 0.34.
For AEDKAAVERSKMIDRNLREDGEKA [GNAI1], the protein stability index (treatment: DMSO) amounted to 5.691 ± 0.042 and the protein stability index (treatment: MLN4924 1 uM, 8 h) was 5.34 ± 0.13.
Taken in the same sequence, the figures for QGDKAIREQGPREQEPELSFLKQK [PBXIP1] were 5.44 ± 0.33 and 5.42 ± 0.16.
Taken in the same sequence, the figures for STPSDNIVRRFLNICENTEGAIAV [CDC14A] were 3.66 ± 0.39 and 3.66 ± 0.14.
FVELIGPKLREETAHMLGVRELRI [CABP4] registered a protein stability index (treatment: DMSO) of 2.69 ± 0.88 and a protein stability index (treatment: MLN4924 1 uM, 8 h) of 2.14 ± 0.88.
Taken in the same sequence, the figures for NESALVKEKELSIELANIRDEVAF [MTUS2] were 4.42 ± 0.28 and 4.33 ± 0.46.
Taken in the same sequence, the figures for LCQVAQEALASAGASCCGQPLASH [VENTX] were 3.38 ± 0.27 and 3.42 ± 0.15.
The like results for PNHLGGGAVVLGAESHASKDVAID [STX5] were, in that order, 5.1 ± 0.37 and 5.15 ± 0.17.
Take KKHEFLTSVLDALSTDMVHAASDP [SMOC2]: the protein stability index (treatment: DMSO) came out at 3.33 ± 0.24 and the protein stability index (treatment: MLN4924 1 uM, 8 h) was determined as 3.46 ± 0.18.
Taken in the same sequence, the figures for NISCFFRLVDRDSVWGYDLGLRSL [MYORG] were 3.01 ± 0.41 and 2.95 ± 0.7.
Taken in the same sequence, the figures for AKEEGGEEVAKAVLEQEETAAASR [EPB41L3] were 5.47 ± 0.37 and 5.79 ± 0.095.
For the sequence LLSCLSKSNNRLKSLSIQYLELDR [FBXO39], the protein stability index by setting is: (treatment: DMSO) 2.54 ± 0.37; (treatment: MLN4924 1 uM, 8 h) 2.01 ± 0.33.
Taken in the same sequence, the figures for EIIPINVNNNYEHRHTSHLGHAVL [SPRY1] were 2.34 ± 0.15 and 2.43 ± 0.3.
On to VASVGNSRPTGQQLESLGLLAPGE [KISS1], for which the protein stability index by setting is: (treatment: DMSO) 4.44 ± 0.17; (treatment: MLN4924 1 uM, 8 h) 4.52 ± 0.3.
Consider TCCESTQRSVSDVASGSTPAPALC [IRX6], for which the protein stability index by setting is: (treatment: DMSO) 4.48 ± 0.067; (treatment: MLN4924 1 uM, 8 h) 4.51 ± 0.11.
As for LFLMDLSEGELGGPSEPGGTHPED [RHOBTB2], the protein stability index was found to be 4.45 ± 0.22 (treatment: DMSO) and 4.33 ± 0.23 (treatment: MLN4924 1 uM, 8 h).
Regarding GGGGCDRYEPLPPSLPAAGEQDCC [KCNA3], the protein stability index is, setting by setting: (treatment: DMSO) 5.02 ± 0.33; (treatment: MLN4924 1 uM, 8 h) 5.06 ± 0.29.
For VNIMRTYTYEKLLWTTSRVLKVLS [CTNNB1], the protein stability index runs as follows: (treatment: DMSO) 2.18 ± 0.14; (treatment: MLN4924 1 uM, 8 h) 2.41 ± 0.67.
Taken in the same sequence, the figures for AELEQHLEQEQEFQVNKLMKKIKK [CCDC6] were 4.61 ± 0.26 and 5.13 ± 0.38.
The like results for AGLFSQEQYERNKSSSSSSSSSSS [TMEM40] were, in that order, 5.16 ± 0.083 and 5.32 ± 0.2.
The like results for HSGTKRDPKEDVFQQNHLFWLQNS [PHTF1] were, in that order, 3.42 ± 0.25 and 3.33 ± 0.26.
Consider INVYGNTALHIACYNGQDAVVNEL [ANKRD44], for which the protein stability index turned out to be 2.06 ± 0.16 (treatment: DMSO) and 2.23 ± 0.16 (treatment: MLN4924 1 uM, 8 h).
Regarding TLEFENVQVLTMGNDTSPSEGTNL [HNF4A], the protein stability index is 4.69 ± 0.18 (treatment: DMSO) and 4.52 ± 0.39 (treatment: MLN4924 1 uM, 8 h).
The like results for CPWEPQKQPPWEFLQVLEPGARGL [SPAG8] were, in that order, 3.11 ± 0.24 and 3.36 ± 0.11.
For the sequence TRLSRLQEKEELRELNDRLAVYID [LMNB1], the protein stability index (treatment: DMSO) is 3.42 ± 0.25 and the protein stability index (treatment: MLN4924 1 uM, 8 h) was found to be 3.5 ± 0.28.
The like results for TSSLFRTEPMAWNETADLGLDIGA [CTNNB1] were, in that order, 3.71 ± 0.24 and 3.82 ± 0.59.
The like results for SRVAHIERTRKPYNNDIDYYAKRN [GALNT9] were, in that order, 3.77 ± 0.37 and 3.91 ± 0.33.
Taken in the same sequence, the figures for SDVDQLYLIIRTLGKLIPRHQSIF [CDKL4] were 3 ± 1.2 and 2.67 ± 0.77.
The sequence RGNVVLRAQMIRNEYRKLHPVLHK [TRIM43] came in with a protein stability index (treatment: DMSO) of 2.25 ± 0.38 and a protein stability index (treatment: MLN4924 1 uM, 8 h) of 2.77 ± 0.56.
Take DDFRTKYQTEQSLRQLVESDINSL [KRT33B]: the protein stability index was 4.6 ± 0.2 (treatment: DMSO) and 4.39 ± 0.12 (treatment: MLN4924 1 uM, 8 h).
Consider ELLTDKSCQSFISWTGDGWEFKLS [ETS1], for which the protein stability index was determined as 2.24 ± 0.28 (treatment: DMSO) and 2.55 ± 0.37 (treatment: MLN4924 1 uM, 8 h).
The like results for NKKGFWSYGPVILVVLVVAVVASS [TOR1AIP2] were, in that order, 1.78 ± 0.42 and 1.83 ± 0.042.
Take TEPEQRELKTKLTKLEAEIVTLRH [TPD52L3]: the protein stability index runs as follows: (treatment: DMSO) 4.23 ± 0.15; (treatment: MLN4924 1 uM, 8 h) 4.35 ± 0.26.
The like results for THFNTAQGFRTVLELVINYQQLCI [OAS1] were, in that order, 3.26 ± 0.87 and 2.76 ± 0.37.
Turning to EMSLAEELNHGRQGENQEHLVIAE [FATE1], the protein stability index runs as follows: (treatment: DMSO) 5.44 ± 0.12; (treatment: MLN4924 1 uM, 8 h) 5.2 ± 0.24.
Take LVSGSQSALGPPPAASNSSDLFDL [CLINT1]: the protein stability index (treatment: DMSO) worked out at 4.43 ± 0.24 and the protein stability index (treatment: MLN4924 1 uM, 8 h) turned out to be 4.34 ± 0.18.
LAMNYKHGDPIPKVEFTEEEIKTW [TPH1]: the protein stability index was 4.21 ± 0.33 (treatment: DMSO) and 4.35 ± 0.24 (treatment: MLN4924 1 uM, 8 h).
On to STKAIPEKYGAVREVILKELAEAT [ZBED1], for which the protein stability index reads like this: (treatment: DMSO) 3.88 ± 0.32; (treatment: MLN4924 1 uM, 8 h) 4.08 ± 0.35.
LAVYHRLWDRAYVRLKPALQRLDF [RETREG3]: the protein stability index was 2.31 ± 0.38 (treatment: DMSO) and 2.56 ± 0.4 (treatment: MLN4924 1 uM, 8 h).
The like results for EGYQALYHAVVEPMLWNPSGTPKR [C22orf31] were, in that order, 2.39 ± 0.28 and 2.79 ± 0.61.
QECLKQLAIKKQQHIDNITQIEDA [TRIM14]: the protein stability index runs as follows: (treatment: DMSO) 4.93 ± 0.19; (treatment: MLN4924 1 uM, 8 h) 4.72 ± 0.22.
The like results for VSWFGSPTTSFLSISKLSPFSEFF [PWWP2B] were, in that order, 2.32 ± 0.62 and 2.35 ± 0.41.
Sequence TNHGYRVQVENPERFSSAPCLLGS [TRIM35] displayed a protein stability index (treatment: DMSO) of 3.4 ± 0.17 and a protein stability index (treatment: MLN4924 1 uM, 8 h) of 3.29 ± 0.31.
In the case of GTADGRVVKLENGEIETIARFGSG [APMAP], the protein stability index runs as follows: (treatment: DMSO) 4.66 ± 0.25; (treatment: MLN4924 1 uM, 8 h) 4.64 ± 0.1.
The like results for EGDVLDTLEALGYKGPLLEEQALT [FAM98B] were, in that order, 4.36 ± 0.34 and 4.35 ± 0.12.
Take VKVLAGQEYAAKIINTKKLSARDH [CAMK2A]: the protein stability index was 3.15 ± 0.34 (treatment: DMSO) and 3.33 ± 0.11 (treatment: MLN4924 1 uM, 8 h).
Take SHHLAVYNSPQFKKTMSTFHNLVS [FBXO39]: the protein stability index reads like this: (treatment: DMSO) 2.25 ± 0.28; (treatment: MLN4924 1 uM, 8 h) 2.31 ± 0.1.
For KCVVHIHTPAGAAVSAMKCGLLPI [ADD1], the protein stability index was found to be 2.69 ± 0.52 (treatment: DMSO) and 2.17 ± 0.56 (treatment: MLN4924 1 uM, 8 h).
Take ALEFQPQLVLVAAGFDALQGDPKG [HDAC6]: the protein stability index (treatment: DMSO) was 2.86 ± 0.28 and the protein stability index (treatment: MLN4924 1 uM, 8 h) is 3.11 ± 0.47.
On to ENIAWVKSYNICFELEDSNEIFTQ [PDS5B], for which the protein stability index worked out at 2.46 ± 0.61 (treatment: DMSO) and 2.53 ± 0.28 (treatment: MLN4924 1 uM, 8 h).
Taken in the same sequence, the figures for QQPPPPRRAGAACTLRQKLIFSPC [WEE1] were 2.79 ± 0.46 and 2.94 ± 0.099.
Taken in the same sequence, the figures for LDRVRGGRQKYKRRPEVDPLPFPG [ESRRA] were 3.68 ± 0.36 and 3.92 ± 0.41.
The like results for QLISRMEYVHSKNLIYRDVKPENF [CSNK1G3] were, in that order, 2.37 ± 0.24 and 2.42 ± 0.17.
With TCVNLLLEASNYQMMPYMQPVMQS [KLHL13], the protein stability index was 3.06 ± 0.41 (treatment: DMSO) and 2.98 ± 0.36 (treatment: MLN4924 1 uM, 8 h).
As to HLGCAVYQDMIYAVGGRDDTTELS [KLHL20], the protein stability index reads like this: (treatment: DMSO) 3.39 ± 0.14; (treatment: MLN4924 1 uM, 8 h) 3.38 ± 0.17.
For the setting “treatment: DMSO”, KSIYYITGESKEQVANSAFVERVR [HSP90AB1] came in with a protein stability index of 3.11 ± 0.32.
In the case of SIAFRLRLASFDSSGKLICSRTTG [GMCL1], the protein stability index runs as follows: (treatment: DMSO) 2.52 ± 0.4; (treatment: MLN4924 1 uM, 8 h) 2.09 ± 0.34.
On to FDNPQVRFFLGDLCSRQDLYPALK [NSDHL], for which the protein stability index by setting is: (treatment: DMSO) 2.35 ± 0.29; (treatment: MLN4924 1 uM, 8 h) 2.25 ± 0.26.
For TFFPVALKKHGPICQKTATKKRKT [ZC2HC1A], the protein stability index turned out to be 3.24 ± 0.3 (treatment: DMSO) and 3.32 ± 0.3 (treatment: MLN4924 1 uM, 8 h).
Taken in the same sequence, the figures for TRQLHEKTSQLSYYYMGFYIHSCP [ATE1] were 2.83 ± 0.71 and 2.54 ± 0.41.
Taken in the same sequence, the figures for NVEDHINPKLPNISLDVLQPSFPE [POMT2] were 4.58 ± 0.22 and 4.7 ± 0.15.
The like results for LGRPDSLELQRQREARKRALARKQ [RSPH3] were, in that order, 4.6 ± 0.17 and 4.43 ± 0.19.
